Consider 2 substances from patent publication US9309288B2, “Selective αvβ3 receptor peptide antagonist for therapeutic and diagnostic applications” (ADVANCED ACCELERATOR APPLICATIONS, priority 2005, dated 2016).

This assay deals with αvβ3 (Homo sapiens, UniProt P05106+P06756). Kind of assay: Cell adhesion assay, αvβ3 overexpressing K562 cells (Kαvβ3) on vitronectin. The assay is classed as cell-based. Also on record: expressed in transfected cells; host or cells: K562 (human erythroleukemia), gift of Dr. S. D. Blystone. Conditions: 10 μM peptide.
Chain of αvβ3 (P06756 31-889 limits assumed): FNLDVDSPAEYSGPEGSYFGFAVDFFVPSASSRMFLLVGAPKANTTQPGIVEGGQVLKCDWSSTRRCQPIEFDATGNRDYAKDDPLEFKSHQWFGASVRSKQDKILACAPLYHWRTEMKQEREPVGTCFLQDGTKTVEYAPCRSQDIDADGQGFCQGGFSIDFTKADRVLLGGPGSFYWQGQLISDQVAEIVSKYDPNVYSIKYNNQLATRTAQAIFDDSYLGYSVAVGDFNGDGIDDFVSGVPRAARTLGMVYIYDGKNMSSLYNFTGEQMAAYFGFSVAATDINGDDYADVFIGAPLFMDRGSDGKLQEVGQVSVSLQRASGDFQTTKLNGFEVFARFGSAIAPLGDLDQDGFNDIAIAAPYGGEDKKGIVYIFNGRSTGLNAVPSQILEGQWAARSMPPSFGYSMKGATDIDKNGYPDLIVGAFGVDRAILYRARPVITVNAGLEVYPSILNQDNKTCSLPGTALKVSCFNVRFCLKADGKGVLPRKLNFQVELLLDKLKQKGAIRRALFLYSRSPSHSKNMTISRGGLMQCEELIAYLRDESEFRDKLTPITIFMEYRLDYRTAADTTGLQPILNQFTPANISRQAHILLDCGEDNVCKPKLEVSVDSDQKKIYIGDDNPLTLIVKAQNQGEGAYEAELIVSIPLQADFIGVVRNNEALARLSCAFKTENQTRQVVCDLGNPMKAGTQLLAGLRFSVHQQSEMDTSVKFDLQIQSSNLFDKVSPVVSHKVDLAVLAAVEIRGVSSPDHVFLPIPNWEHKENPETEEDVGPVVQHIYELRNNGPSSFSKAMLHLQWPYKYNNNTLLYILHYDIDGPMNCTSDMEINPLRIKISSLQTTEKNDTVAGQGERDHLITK
Chain of αvβ3 (P06756 891-1048 partner limits assumed): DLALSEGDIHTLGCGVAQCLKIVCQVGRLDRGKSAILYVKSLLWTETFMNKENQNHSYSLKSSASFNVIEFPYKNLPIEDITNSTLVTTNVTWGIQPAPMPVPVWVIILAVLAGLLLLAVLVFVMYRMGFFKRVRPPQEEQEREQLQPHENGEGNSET
Chain of αvβ3 (P05106 27-788): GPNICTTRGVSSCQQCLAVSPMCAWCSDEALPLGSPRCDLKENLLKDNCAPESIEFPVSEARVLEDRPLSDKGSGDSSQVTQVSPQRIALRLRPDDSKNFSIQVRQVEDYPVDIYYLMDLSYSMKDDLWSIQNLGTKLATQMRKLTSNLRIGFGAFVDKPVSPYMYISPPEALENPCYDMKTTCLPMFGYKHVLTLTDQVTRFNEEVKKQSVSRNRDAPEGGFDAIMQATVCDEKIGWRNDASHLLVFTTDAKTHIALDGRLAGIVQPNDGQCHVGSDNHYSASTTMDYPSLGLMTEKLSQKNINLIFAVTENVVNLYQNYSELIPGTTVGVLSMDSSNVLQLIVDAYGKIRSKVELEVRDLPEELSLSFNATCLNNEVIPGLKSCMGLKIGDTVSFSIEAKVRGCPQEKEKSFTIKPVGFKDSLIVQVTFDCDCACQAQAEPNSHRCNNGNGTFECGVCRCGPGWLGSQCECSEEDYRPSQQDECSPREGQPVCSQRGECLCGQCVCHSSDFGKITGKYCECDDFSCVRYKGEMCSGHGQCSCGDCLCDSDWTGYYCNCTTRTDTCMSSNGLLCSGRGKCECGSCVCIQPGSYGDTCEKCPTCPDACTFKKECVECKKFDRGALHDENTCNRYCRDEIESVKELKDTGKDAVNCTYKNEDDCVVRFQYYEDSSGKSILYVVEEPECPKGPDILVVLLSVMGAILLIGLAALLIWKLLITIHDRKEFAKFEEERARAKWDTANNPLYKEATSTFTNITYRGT

Method: Cell Adhesion and Competitive Assay: Human erythroleukemia K562 cells, stably cotransfected with cDNA of αv or αIIb subunit and β3 or β5 subunits, were kindly provided by Dr. S. D. Blystone (SUNY Upstate Medical University, Syracuse, N.Y.). Cells were maintained in Iscove's Modified Dubecco's Medium (IMDM) supplemented with 10% heat-inactivated fetal bovine serum, 100 IU/ml penicillin, 50 μg/mL streptomycin and 500 μg/mL G418 in a humidified incubator with 5% CO2 at 37° C. […] Cells were used to determine affinity for αvβ3 and cross-reactivity with αvβ5 and αIIbβ3 integrin.
Briefly, 24-well flat-bottom plates were incubated overnight with 5 μg/mL vitronectin. The pre-coated plates were rinsed with PBS, incubated for 1 h at 23° C. with 1% heat-denatured bovine serum albumin, and rinsed again. Then, αvβ3 overexpressing K562 cells were incubated with various concentrations of cyclic RGD peptides or diluents for 1 h at 4° C. Peptide-treated cells (0.2-0.5×106/100 μL/well) were seeded onto pre-coated plates and allowed to adhere for 1 h at 37° C. in 5% CO2. Non-adherent cells were removed with gentle washing, whereas adherent cells were detached by trypsinization and counted. Three different adhesion assays were performed in duplicates.
All synthesized peptides were tested for their ability to inhibit cell adhesion to vitronectin. […]

On to RNPHKGPAT [echi 11-19], for which the “cell adhesion remaining as compared to untreated control cells” value is on record as 97.5%.
Then “echi6-19: fragment of the RGDechi sequence (SEQ ID NO: 2) (MDDPGRNPHKGPAT)”, with 99.0%.
